# Assay results reported in IntAct's records for PubMed 35512704.
# B1: Mothers against decapentaplegic homolog 4 (Homo sapiens), Q13485 (parent)
# chain: MDNMSITNTPTSNDACLSIVHSLMCHRQGGESETFAKRAIESLVKKLKEKKDELDSLITAITTNGAHPSKCVTIQRTLDGRLQVAGRKGFPHVIYARLWRWPDLHKNELKHVKYCQYAFDLKCDSVCVNPYHYERVVSPGIDLSGLTLQSNAPSSMMVKDEYVHDFEGQPSLSTEGHSIQTIQHPPSNRASTETYSTPALLAPSESNATSTANFPNIPVASTSQPASILGGSHSEGLLQIASGPQPGQQQNGFTGQPATYHHNSTTTWTGSRTAPYTPNLPHHQNGHLQHHPPMPPHPGHYWPVHNELAFQPPISNHPAPEYWCSIAYFEMDVQVGETFKVPSSCPIVTVDGYVDPSGGDRFCLGQLSNVHRTEAIERARLHIGKGVQLECKGEGDVWVRCLSDHAVFVQSYYLDREAGRAPGDAVHKIYPSAYIKVFDLRQCHRQMQQQAATAQAAAAAQAAAVAGNIPGPGSVGGIAPAISLSAAAGIGVDDLRRLCILRMSFVKGWGPDYPRQSIKETPCWIEIHLHRALQLLDEVLHTMPIADPQPLD
# Variants of: B1
# Settings: with grm1_human GRM1, Q13255
row,Variant,effect of a mutation on the interaction
1,R361C,with no effect

# Variants of: B1
# Settings: with grm3_human GRM3, Q14832
row,Variant,effect of a mutation on the interaction
1,R361C,with no effect

# Variants of: B1
# Settings: with gsk3a_human GSK3A
row,Variant,effect of a mutation on the interaction
1,R361C,with no effect

# Variants of: B1
# Settings: with hdac1_human HDAC1, Q13547
# Sequence of hdac1_human HDAC1, Q13547 (Q13547 whole entry): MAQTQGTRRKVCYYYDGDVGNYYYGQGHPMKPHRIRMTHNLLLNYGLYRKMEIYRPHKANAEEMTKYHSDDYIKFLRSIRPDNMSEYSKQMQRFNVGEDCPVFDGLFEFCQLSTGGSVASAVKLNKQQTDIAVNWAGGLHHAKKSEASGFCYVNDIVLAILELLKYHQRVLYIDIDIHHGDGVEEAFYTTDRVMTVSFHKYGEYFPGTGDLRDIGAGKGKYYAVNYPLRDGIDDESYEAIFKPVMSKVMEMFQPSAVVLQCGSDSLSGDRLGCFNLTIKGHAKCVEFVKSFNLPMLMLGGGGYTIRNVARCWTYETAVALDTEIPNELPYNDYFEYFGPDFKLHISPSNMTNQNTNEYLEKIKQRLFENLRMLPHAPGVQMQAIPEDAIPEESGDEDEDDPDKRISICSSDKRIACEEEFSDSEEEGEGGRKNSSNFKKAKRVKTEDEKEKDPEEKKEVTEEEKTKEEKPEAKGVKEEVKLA
row,Variant,effect of a mutation on the interaction
1,R361C,with no effect

# Variants of: B1
# Settings: with hdac3_human HDAC3, O15379
row,Variant,effect of a mutation on the interaction
1,R361C,with no effect

# Variants of: B1
# Settings: with hgf_human HGF
row,Variant,effect of a mutation on the interaction
1,R361C,with no effect

# Variants of: B1
# Settings: with h31_human H3C1, P68431
row,Variant,effect of a mutation on the interaction
1,R361C,with no effect

# Variants of: B1
# Settings: with hlab_human HLA-B
row,Variant,effect of a mutation on the interaction
1,R361C,with no effect

# Variants of: B1
# Settings: with hnf1a_human HNF1A
row,Variant,effect of a mutation on the interaction
1,R361C,with no effect

# Variants of: B1
# Settings: with rash_human HRAS
row,Variant,effect of a mutation on the interaction
1,R361C,with no effect

# Variants of: B1
# Settings: with hs90a_human HSP90AA1, P07900
row,Variant,effect of a mutation on the interaction
1,R361C,with no effect

# Variants of: B1
# Settings: with il7ra_human IL7R
row,Variant,effect of a mutation on the interaction
1,R361C,with no effect

# Variants of: B1
# Settings: with irf6_human IRF6, O14896
row,Variant,effect of a mutation on the interaction
1,R361C,with no effect

# Variants of: B1
# Settings: with irs1_human IRS1, P35568
row,Variant,effect of a mutation on the interaction
1,R361C,with no effect

# Variants of: B1
# Settings: with jak1_human JAK1, P23458
row,Variant,effect of a mutation on the interaction
1,R361C,with no effect

# Variants of: B1
# Settings: with jak3_human JAK3, P52333
row,Variant,effect of a mutation on the interaction
1,R361C,with no effect

# Variants of: B1
# Settings: with kdm5c_human KDM5C
row,Variant,effect of a mutation on the interaction
1,R361C,with no effect

# Variants of: B1
# Settings: with vgfr2_human KDR
row,Variant,effect of a mutation on the interaction
1,R361C,with no effect

# Variants of: B1
# Settings: with keap1_human KEAP1, Q14145
row,Variant,effect of a mutation on the interaction
1,R361C,with no effect

# Variants of: B1
# Settings: with klf4_human KLF4, O43474
# Sequence of klf4_human KLF4, O43474 (O43474 whole entry): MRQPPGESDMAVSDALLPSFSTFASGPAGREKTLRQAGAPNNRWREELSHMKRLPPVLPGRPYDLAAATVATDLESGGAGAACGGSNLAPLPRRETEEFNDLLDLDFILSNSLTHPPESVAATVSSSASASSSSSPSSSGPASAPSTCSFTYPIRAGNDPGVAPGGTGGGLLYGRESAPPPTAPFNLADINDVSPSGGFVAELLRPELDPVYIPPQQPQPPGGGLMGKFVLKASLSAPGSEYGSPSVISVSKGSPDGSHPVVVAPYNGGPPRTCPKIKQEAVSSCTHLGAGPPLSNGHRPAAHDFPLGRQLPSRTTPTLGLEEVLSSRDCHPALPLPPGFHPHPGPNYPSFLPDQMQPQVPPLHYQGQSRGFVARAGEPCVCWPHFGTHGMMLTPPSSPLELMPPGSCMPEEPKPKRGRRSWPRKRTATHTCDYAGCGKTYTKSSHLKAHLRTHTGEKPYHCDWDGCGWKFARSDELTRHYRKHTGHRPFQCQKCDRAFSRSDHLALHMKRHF
row,Variant,effect of a mutation on the interaction
1,R361C,with no effect

# Variants of: B1
# Settings: with maga6_human MAGEA6, P43360
# Sequence of maga6_human MAGEA6, P43360 (P43360 whole entry): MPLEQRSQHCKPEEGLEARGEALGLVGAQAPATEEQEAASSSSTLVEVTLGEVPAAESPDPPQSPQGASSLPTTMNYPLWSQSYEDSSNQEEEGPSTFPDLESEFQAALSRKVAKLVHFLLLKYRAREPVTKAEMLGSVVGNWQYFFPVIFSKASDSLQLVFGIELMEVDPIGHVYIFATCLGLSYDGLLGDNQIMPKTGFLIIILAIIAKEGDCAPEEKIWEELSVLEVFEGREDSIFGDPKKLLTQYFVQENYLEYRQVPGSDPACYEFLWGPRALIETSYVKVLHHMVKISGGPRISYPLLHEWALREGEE
row,Variant,effect of a mutation on the interaction
1,R361C,with no effect

# Variants of: B1
# Settings: with mp2k7_human MAP2K7, O14733
row,Variant,effect of a mutation on the interaction
1,R361C,with no effect

# Variants of: B1
# Settings: with m3k1_human MAP3K1, Q13233
row,Variant,effect of a mutation on the interaction
1,R361C,with no effect

# Variants of: B1
# Settings: with mk10_human MAPK10, P53779
row,Variant,effect of a mutation on the interaction
1,R361C,with no effect

# Variants of: B1
# Settings: with mk14_human MAPK14, Q16539
# Sequence of mk14_human MAPK14, Q16539 (Q16539 whole entry): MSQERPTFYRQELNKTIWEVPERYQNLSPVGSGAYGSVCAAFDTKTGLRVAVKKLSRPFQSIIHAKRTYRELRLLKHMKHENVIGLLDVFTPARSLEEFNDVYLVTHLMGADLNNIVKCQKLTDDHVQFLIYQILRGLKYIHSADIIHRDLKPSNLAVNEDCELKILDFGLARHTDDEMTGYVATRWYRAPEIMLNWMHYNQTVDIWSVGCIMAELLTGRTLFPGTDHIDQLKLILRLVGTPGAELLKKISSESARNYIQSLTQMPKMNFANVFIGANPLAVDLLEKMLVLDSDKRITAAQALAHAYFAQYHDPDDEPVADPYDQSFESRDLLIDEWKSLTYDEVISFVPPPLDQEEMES
row,Variant,effect of a mutation on the interaction
1,R361C,with no effect

# Variants of: B1
# Settings: with mk03_human MAPK3, P27361
row,Variant,effect of a mutation on the interaction
1,R361C,with no effect

# Variants of: B1
# Settings: with mk04_human MAPK4, P31152
row,Variant,effect of a mutation on the interaction
1,R361C,with no effect

# Variants of: B1
# Settings: with mk06_human MAPK6, Q16659
row,Variant,effect of a mutation on the interaction
1,R361C,with no effect

# Variants of: B1
# Settings: with mcl1_human MCL1, Q07820
row,Variant,effect of a mutation on the interaction
1,R361C,with no effect

# Variants of: B1
# Settings: with mitf_human MITF
row,Variant,effect of a mutation on the interaction
1,R361C,with no effect

# Variants of: B1
# Settings: with myc_human MYC
row,Variant,effect of a mutation on the interaction
1,R361C,with no effect

# Variants of: B1
# Settings: with nf1_human NF1, P21359
row,Variant,effect of a mutation on the interaction
1,R361C,with no effect

# Variants of: B1
# Settings: with merl_human NF2, P35240
row,Variant,effect of a mutation on the interaction
1,R361C,with no effect

# Variants of: B1
# Settings: with nfic_human NFIC
row,Variant,effect of a mutation on the interaction
1,R361C,with no effect

# Variants of: B1
# Settings: with notc2_human NOTCH2, Q04721
# Sequence of notc2_human NOTCH2, Q04721 (Q04721 whole entry): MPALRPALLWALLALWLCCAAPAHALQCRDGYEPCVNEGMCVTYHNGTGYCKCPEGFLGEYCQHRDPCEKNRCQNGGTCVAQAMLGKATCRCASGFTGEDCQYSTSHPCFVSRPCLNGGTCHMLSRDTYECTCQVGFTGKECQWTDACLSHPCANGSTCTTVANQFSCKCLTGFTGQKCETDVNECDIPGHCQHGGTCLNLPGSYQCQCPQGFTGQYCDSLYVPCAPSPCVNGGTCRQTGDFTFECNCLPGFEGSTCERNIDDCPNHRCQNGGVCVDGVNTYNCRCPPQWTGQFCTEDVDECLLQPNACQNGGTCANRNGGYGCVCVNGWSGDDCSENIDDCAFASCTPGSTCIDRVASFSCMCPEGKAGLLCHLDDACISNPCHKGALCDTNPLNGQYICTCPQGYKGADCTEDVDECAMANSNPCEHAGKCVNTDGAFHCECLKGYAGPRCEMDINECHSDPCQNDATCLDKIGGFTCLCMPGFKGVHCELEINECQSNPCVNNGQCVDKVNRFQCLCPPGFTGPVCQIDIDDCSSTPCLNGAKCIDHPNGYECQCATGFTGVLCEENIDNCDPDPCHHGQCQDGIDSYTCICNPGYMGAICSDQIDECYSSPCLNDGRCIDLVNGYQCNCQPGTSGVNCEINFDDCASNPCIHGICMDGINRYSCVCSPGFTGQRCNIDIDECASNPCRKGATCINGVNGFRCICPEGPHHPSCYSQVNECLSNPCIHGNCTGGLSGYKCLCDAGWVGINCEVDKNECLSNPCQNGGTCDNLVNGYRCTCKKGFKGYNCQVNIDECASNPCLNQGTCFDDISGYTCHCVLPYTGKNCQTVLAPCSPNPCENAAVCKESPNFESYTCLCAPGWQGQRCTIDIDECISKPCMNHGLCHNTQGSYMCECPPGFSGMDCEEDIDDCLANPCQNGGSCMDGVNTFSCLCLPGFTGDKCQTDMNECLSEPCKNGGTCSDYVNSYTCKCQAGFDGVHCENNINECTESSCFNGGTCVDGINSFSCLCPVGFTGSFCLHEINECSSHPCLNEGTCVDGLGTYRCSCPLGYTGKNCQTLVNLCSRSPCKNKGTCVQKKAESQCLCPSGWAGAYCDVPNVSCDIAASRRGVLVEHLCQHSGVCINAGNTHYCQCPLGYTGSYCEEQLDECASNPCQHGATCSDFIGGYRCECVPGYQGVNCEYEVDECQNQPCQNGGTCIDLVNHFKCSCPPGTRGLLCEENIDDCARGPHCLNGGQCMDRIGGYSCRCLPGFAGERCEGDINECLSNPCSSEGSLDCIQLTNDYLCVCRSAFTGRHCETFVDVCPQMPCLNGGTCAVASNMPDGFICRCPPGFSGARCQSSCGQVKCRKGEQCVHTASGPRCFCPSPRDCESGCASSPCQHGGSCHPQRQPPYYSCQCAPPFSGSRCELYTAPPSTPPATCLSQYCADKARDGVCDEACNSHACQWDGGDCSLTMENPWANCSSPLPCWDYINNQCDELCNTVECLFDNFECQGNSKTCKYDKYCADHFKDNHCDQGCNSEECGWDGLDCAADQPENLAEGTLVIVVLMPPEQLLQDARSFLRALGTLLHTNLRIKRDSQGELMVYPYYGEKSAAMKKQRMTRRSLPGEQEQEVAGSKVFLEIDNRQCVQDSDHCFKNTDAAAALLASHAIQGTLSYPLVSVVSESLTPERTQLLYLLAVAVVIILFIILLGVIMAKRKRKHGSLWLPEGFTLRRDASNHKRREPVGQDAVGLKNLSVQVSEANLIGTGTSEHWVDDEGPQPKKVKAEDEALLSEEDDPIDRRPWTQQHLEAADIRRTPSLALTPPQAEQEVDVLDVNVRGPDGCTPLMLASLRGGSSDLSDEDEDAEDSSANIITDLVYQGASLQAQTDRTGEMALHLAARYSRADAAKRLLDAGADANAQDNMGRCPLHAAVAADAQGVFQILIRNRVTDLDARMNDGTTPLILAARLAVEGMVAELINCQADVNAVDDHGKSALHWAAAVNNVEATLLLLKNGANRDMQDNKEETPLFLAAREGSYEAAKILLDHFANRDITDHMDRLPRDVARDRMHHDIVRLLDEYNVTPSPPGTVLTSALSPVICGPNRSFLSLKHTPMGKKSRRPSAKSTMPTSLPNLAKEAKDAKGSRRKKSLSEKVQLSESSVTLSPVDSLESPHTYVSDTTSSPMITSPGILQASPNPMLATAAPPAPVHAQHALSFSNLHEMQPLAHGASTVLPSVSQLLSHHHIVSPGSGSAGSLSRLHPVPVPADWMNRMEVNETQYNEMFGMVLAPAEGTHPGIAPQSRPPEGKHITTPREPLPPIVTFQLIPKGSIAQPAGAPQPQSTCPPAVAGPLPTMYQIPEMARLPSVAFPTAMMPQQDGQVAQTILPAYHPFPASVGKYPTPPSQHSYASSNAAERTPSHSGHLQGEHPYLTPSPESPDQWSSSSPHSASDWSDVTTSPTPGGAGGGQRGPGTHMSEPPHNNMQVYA
row,Variant,effect of a mutation on the interaction
1,R361C,with no effect

# Variants of: B1
# Settings: with pak3_human PAK3, O75914
row,Variant,effect of a mutation on the interaction
1,R361C,with no effect

# Variants of: B1
# Settings: with pax5_human PAX5, Q02548
row,Variant,effect of a mutation on the interaction
1,R361C,with no effect

# Variants of: B1
# Settings: with pax9_human PAX9, P55771
row,Variant,effect of a mutation on the interaction
1,R361C,with no effect

# Variants of: B1
# Settings: with pb1_human PBRM1, Q86U86
row,Variant,effect of a mutation on the interaction
1,R361C,with no effect

# Variants of: B1
# Settings: with pcbp1_human PCBP1, Q15365
row,Variant,effect of a mutation on the interaction
1,R361C,with no effect

# Variants of: B1
# Settings: with pgfra_human PDGFRA
row,Variant,effect of a mutation on the interaction
1,R361C,with no effect

# Variants of: B1
# Settings: with pgfrb_human PDGFRB
row,Variant,effect of a mutation on the interaction
1,R361C,with no effect

# Variants of: B1
# Settings: with pdk1_human PDK1, Q15118
row,Variant,effect of a mutation on the interaction
1,R361C,with no effect

# Variants of: B1
# Settings: with PIK3C2B
row,Variant,effect of a mutation on the interaction
1,R361C,with no effect

# Variants of: B1
# Settings: with pk3c3_human PIK3C3, Q8NEB9
# Sequence of pk3c3_human PIK3C3, Q8NEB9 (Q8NEB9 whole entry): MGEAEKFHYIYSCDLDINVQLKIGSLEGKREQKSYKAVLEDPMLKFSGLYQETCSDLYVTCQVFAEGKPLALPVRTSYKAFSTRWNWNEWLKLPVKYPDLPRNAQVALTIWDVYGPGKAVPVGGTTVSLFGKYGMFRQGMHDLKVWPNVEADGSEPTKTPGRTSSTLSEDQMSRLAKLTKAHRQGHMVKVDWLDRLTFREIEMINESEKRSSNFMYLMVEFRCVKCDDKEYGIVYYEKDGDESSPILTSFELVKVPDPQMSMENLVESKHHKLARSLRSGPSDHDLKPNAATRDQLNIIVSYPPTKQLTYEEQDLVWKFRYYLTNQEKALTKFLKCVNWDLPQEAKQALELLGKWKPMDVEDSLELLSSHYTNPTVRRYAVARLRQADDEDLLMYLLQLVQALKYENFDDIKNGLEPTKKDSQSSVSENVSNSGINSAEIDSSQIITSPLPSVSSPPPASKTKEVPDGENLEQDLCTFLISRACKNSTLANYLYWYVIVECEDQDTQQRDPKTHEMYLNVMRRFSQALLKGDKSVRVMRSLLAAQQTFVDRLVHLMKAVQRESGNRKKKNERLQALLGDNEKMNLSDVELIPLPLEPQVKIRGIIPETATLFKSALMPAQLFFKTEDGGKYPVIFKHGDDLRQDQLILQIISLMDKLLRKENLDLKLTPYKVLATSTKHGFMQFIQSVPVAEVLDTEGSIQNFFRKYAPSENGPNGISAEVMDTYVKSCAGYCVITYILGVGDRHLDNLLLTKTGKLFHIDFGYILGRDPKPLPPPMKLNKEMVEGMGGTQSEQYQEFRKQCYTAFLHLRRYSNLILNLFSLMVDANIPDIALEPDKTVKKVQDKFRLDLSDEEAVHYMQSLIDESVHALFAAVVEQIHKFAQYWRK
row,Variant,effect of a mutation on the interaction
1,R361C,with no effect

# Variants of: B1
# Settings: with pk3ca_human PIK3CA
row,Variant,effect of a mutation on the interaction
1,R361C,with no effect

# Variants of: B1
# Settings: with pk3cg_human PIK3CG
row,Variant,effect of a mutation on the interaction
1,R361C,with no effect

# Variants of: B1
# Settings: with p85a_human PIK3R1, P27986
row,Variant,effect of a mutation on the interaction
1,R361C,with no effect

# Variants of: B1
# Settings: with p85b_human PIK3R2, O00459
row,Variant,effect of a mutation on the interaction
1,R361C,with no effect

# Variants of: B1
# Settings: with dpod1_human POLD1, P28340
row,Variant,effect of a mutation on the interaction
1,R361C,with no effect

# Variants of: B1
# Settings: with dpoe1_human POLE
row,Variant,effect of a mutation on the interaction
1,R361C,with no effect

# Variants of: B1
# Settings: with lipa1_human PPFIA1, Q13136
row,Variant,effect of a mutation on the interaction
1,R361C,with no effect

# Variants of: B1
# Settings: with 2aaa_human PPP2R1A
row,Variant,effect of a mutation on the interaction
1,R361C,with no effect

# Variants of: B1
# Settings: with prdm1_human PRDM1, O75626
row,Variant,effect of a mutation on the interaction
1,R361C,with no effect

# Variants of: B1
# Settings: with aapk2_human PRKAA2, P54646
row,Variant,effect of a mutation on the interaction
1,R361C,with no effect

# Variants of: B1
# Settings: with aakb2_human PRKAB2, O43741
row,Variant,effect of a mutation on the interaction
1,R361C,with no effect

# Variants of: B1
# Settings: with prss8_human PRSS8, Q16651
row,Variant,effect of a mutation on the interaction
1,R361C,with no effect

# Variants of: B1
# Settings: with ptk6_human PTK6, Q13882
row,Variant,effect of a mutation on the interaction
1,R361C,with no effect

# Variants of: B1
# Settings: with tf65_human RELA
row,Variant,effect of a mutation on the interaction
1,R361C,with no effect

# Variants of: B1
# Settings: with rnf43_human RNF43, Q68DV7
row,Variant,effect of a mutation on the interaction
1,R361C,with no effect
